Measured values from publication PMC4478348.

B1: CKB del (ssRNA)
RNA: GUAGAGACUUCCGUCACGCUUGGUAGAGGA
B2: CKB (ssRNA)
RNA: GUAGAGACUUCCGUCACGCUUGGUAGAGUUUAUUUUUUUGA

Molecular target: LARP4B (UniProt Q92615 1-738)
Assay: EMSA

Sequence of LARP4B (Q92615 whole entry): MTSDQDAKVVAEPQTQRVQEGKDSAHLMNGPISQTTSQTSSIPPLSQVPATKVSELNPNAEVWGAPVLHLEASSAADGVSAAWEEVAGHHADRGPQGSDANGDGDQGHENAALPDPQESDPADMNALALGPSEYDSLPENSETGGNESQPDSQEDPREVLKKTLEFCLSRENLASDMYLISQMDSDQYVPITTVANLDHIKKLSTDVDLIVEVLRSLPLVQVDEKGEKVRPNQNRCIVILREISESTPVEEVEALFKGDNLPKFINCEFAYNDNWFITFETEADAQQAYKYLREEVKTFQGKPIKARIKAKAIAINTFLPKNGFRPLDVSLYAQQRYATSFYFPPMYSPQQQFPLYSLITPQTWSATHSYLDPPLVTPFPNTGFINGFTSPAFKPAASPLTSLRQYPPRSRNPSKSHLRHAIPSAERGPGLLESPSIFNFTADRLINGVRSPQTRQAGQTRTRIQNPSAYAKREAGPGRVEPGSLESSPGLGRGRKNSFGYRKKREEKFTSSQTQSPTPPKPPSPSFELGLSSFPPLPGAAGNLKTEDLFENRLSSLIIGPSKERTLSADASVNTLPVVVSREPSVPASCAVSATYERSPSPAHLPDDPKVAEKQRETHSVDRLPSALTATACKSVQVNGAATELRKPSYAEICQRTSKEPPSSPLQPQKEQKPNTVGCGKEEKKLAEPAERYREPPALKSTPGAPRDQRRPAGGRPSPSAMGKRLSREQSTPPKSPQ

Binder	binding result	Kd [nM]
B1	no binding	–
B2	–	~200
